The values below come from the Immune Epitope Database (IEDB).

The target of test [1] is HLA-A*68:02. Put plainly: IEDB peptide-MHC binding, purified MHC/competitive/radioactivity; filed as Kd, often an IC50 or EC50 that approximates it; ≥ and ≤ were set here for values at or beyond the usual limits of such assays.
Test [2] addresses HLA-A*30:01. The description is as above.
Test [3] addresses HLA-A*03:01. The test is described as above.
Test [4] concerns the target HLA-A*32:01. The test is described as above.
Test [5] has as its target HLA-B*07:02. The test is described as above.
In test [6] the target is HLA-A*01:01. Put plainly: IEDB peptide-MHC binding, purified MHC/direct/fluorescence; filed as Kd, often an IC50 or EC50 that approximates it; ≥ and ≤ were set here for values at or beyond the usual limits of such assays. As to conditions: source organism: Mycobacterium tuberculosis variant bovis BCG str. Pasteur 1173P2.
The target of test [7] is HLA-A*26:01. The description is as above. The settings on record: source organism: Mycobacterium tuberculosis.
Test [8] has as its target HLA-A*02:01. Put plainly: IEDB peptide-MHC binding, purified MHC/competitive/radioactivity; filed as Kd, often an IC50 or EC50 that approximates it; ≥ and ≤ were set here for values at or beyond the usual limits of such assays.
Test [9] concerns the target HLA-B*35:01. The description is as above.
In test [10] the target is HLA-B*53:01. Described as above.
The target of test [11] is HLA-A*29:02. The description is as above.
For test [12], the target named is HLA-A*01:01. The test is described as above.
Test [13] concerns the target HLA-A*30:02. The description is as above.
The target in test [14] is HLA-A*26:01. Described as above.
Test [15] deals with HLA-B*51:01. The test is described as above.
Test [16] addresses HLA-A*02:03. The test is described as above.
The target in test [17] is HLA-A*02:02. The test is described as above.
The target in test [18] is HLA-A*02:06. Described as above.
The target of test [19] is HLA-A*33:01. Described as above. The settings on record: source organism: Mammarenavirus whitewaterense.
Test [20] addresses HLA-A*31:01. The test is described as above. The settings on record: source organism: Mammarenavirus whitewaterense.
In test [21] the target is HLA-A*68:01. The test is described as above. The settings on record: source organism: Mammarenavirus whitewaterense.
Test [22] deals with HLA-B*44:03. The description is as above. The settings on record: source organism: Dengue virus 2 Jamaica/1409/1983.
Test [23] has as its target HLA-B*40:01. The description is as above. The settings on record: source organism: Dengue virus 2 Jamaica/1409/1983.
The target of test [24] is HLA-B*44:02. The test is described as above. The settings on record: source organism: Dengue virus 2 Jamaica/1409/1983.
Where [25] appears, read: source organism: Dengue virus 2 Jamaica/1409/1983.
Where [26] appears, read: source organism: Vaccinia virus WR.
The mark [27] stands for this setting: source organism: Dengue virus 4 Philippines/H241/1956.
Setting [28] is: source organism: Dengue virus 1 Brazil/97-11/1997.
Where [29] appears, read: source organism: Mammarenavirus guanaritoense.
Setting [30] is: source organism: Trypanosoma cruzi.
Where [31] appears, read: source organism: Mammarenavirus whitewaterense.
The mark [32] stands for this setting: source organism: Hepatitis C virus (isolate Th580).
[33] abbreviates: source organism: Mammarenavirus brazilense.
The mark [34] stands for this setting: source organism: Lymphocytic choriomeningitis virus (strain Armstrong).
[35] abbreviates: source organism: Mammarenavirus lassaense.
[36] abbreviates: source organism: Dengue virus 3 Martinique/1243/1999.
Where [37] appears, read: source organism: Mammarenavirus juninense.
[38] abbreviates: source organism: Dengue virus 4 Dominica/814669/1981.

A value given as a limit tells only on which side of the number the result lay.

As a reminder, the Kd is the free concentration of one partner at which half of the binding sites on the other are occupied at equilibrium, for simple one-to-one binding. As to SLTCEVDAL, in test [1] (source organism: Homo sapiens), the Kd worked out at 3120 nM.

Consider TMEAMRIMGI, for which, in test [1] (source organism: Homo sapiens), the Kd was found to be 21.9 nM.

With SVSLVLVGV, the equilibrium dissociation constant (Kd) in test [1] (setting [25]) was found to be 1.05 nM.

As to RTKSKILFG, the Kd in test [2] (setting [26]) was 10 nM.

As for KSRLNALGK, the dissociation constant (Kd) stood at 3.44 nM in test [2] (setting [25]) and 11.3 nM in [3] (setting [25]).

Take STRVPNYNL: the equilibrium dissociation constant (Kd) in test [2] (setting [27]) worked out at 6.26 nM.

On to ISRFANLIK, for which, in [2] (setting [26]), the Kd was found to be 13.4 nM.

On to RVPNYNLII, for which the Kd in test [4] (setting [25]) amounted to 148 nM.

For LTYVVIAILT, the Kd in test [1] (setting [25]) turned out to be 173 nM.

For the sequence TPMMRHTIEN, in test [5] (setting [28]), the Kd came out at 1940 nM.

Turning to DVAAMSGYY, the values for the Kd in [6] and in [7] were 318 nM and 3 nM, respectively.

For the sequence GPVLTLWEGN, in [4] (setting [27]), the Kd came to 1550 nM.

Consider IALSVLAVL, for which, in [8] (source organism: Lassa virus Josiah), the Kd was 1920 nM.

On to HPGFTVIAL, for which the results for the Kd in test [5] (setting [28]), in [9] (setting [28]) and in test [10] (setting [28]) were 3.14 nM, 1.54 nM and 29.4 nM, respectively.

ITLFLILCY: the Kd in test [4] (setting [26]) came out at 1800 nM.

Take AVFQPSTGNY: the Kd is 819 nM in test [11] (setting [29]); 12400 nM in test [2] (setting [29]); ≥ 27600 nM in test [12] (setting [29]); 21.5 nM in [13] (setting [29]); ≥ 69900 nM in [4] (setting [29]); 776 nM in test [14] (setting [29]).

As for RHRKPTYEK, the dissociation constant Kd in [2] (setting [27]) was found to be 24.5 nM.

Consider ITVYFRRTI, for which, in [4] (setting [26]), the Kd was 25.9 nM.

On to MPVMKRYSAP, for which the Kd in [15] (setting [27]) is ≥ 69600 nM; in test [5] (setting [27]) it was 9340 nM; in [9] (setting [27]) it was 502 nM; in test [10] (setting [27]) it was 16000 nM.

With FVDYNFSLV, the Kd stood at 4.24 nM in [16] (setting [30]), 75.5 nM in test [1] (setting [30]), 0.503 nM in test [17] (setting [30]) and 0.655 nM in [18] (setting [30]).

For YMMNIYLNF, in [4] (setting [26]), the Kd worked out at 2.93 nM.

Regarding RGRLLAAGK, the Kd in test [2] (setting [26]) came to 125 nM.

For the sequence RTKPISMYF, the Kd in test [2] (source organism: Vaccinia virus Copenhagen) was 0.598 nM.

FANNKFTLV: the dissociation constant (Kd) is 1.36 nM in test [16] (setting [30]), 75 nM in [1] (setting [30]), 64.1 nM in [17] (setting [30]) and 3.05 nM in test [18] (setting [30]).

Take GKTRRYLPAI: the Kd in test [2] (setting [28]) stood at 670 nM.

For IIFFIVLIL, in test [4] (setting [26]), the Kd was 12.2 nM.

For TTAKEVALL, the values for the Kd in [1] (setting [27]) and in [14] (setting [27]) were 21.8 nM and 1900 nM, respectively.

Take SSIIRSLPK: the Kd in [2] (setting [31]) was 180 nM; in test [19] it was ≥ 39400 nM; in [20], 1720 nM; in test [21], 223 nM; in [3] (setting [31]), 39 nM.

In the case of SLLMWITQC, in [8] (source organism: Homo sapiens), the Kd is ≥ 21100 nM.

Turning to VLSDFKTWL, the Kd in test [16] (setting [32]) was 290 nM; in [1] (setting [32]) it was ≥ 57400 nM; in [17] (setting [32]), 263 nM; in [18] (setting [32]) it was ≥ 29500 nM.

For EMFKTKGRY, the Kd in test [11] (setting [33]) was 11500 nM; in [2] (setting [33]), 8950 nM; in test [12] (setting [33]), ≥ 32000 nM; in test [13] (setting [33]), 131 nM; in test [4] (setting [33]), ≥ 77800 nM; in [14] (setting [33]) it was 650 nM.

In the case of AAAWYLWEVK, in test [4] (setting [25]), the Kd came to 2060 nM.

As to SYRTRAINK, the Kd in [2] (setting [26]) was 1020 nM.

As to NANAYSGKY, the Kd in test [11] (setting [34]) is 1070 nM; in test [2] (setting [34]), ≥ 37600 nM; in test [12] (setting [34]), 515 nM; in test [13] (setting [34]), 2.71 nM; in test [4] (setting [34]), ≥ 50000 nM; in [14] (setting [34]) it was 4310 nM.

Regarding RFASALTAL, the Kd in test [5] (setting [25]) was 324 nM.

For the sequence ILPVIFLSI, the Kd in [4] (setting [26]) came out at 4.49 nM.

Consider STRDGEPLM, for which the results for the Kd in test [2] (setting [27]) and in [14] (setting [27]) were 71.6 nM and 8190 nM, respectively.

Regarding KTGECSKCY, the Kd in [11] (setting [35]) is 10200 nM; in [2] (setting [35]), 18600 nM; in test [12] (setting [35]), 12800 nM; in test [13] (setting [35]) it was 834 nM; in test [4] (setting [35]) it was 6790 nM; in [14] (setting [35]), ≥ 77900 nM.

Turning to KVFVPAPFG, the Kd in test [2] (setting [26]) turned out to be 6.64 nM.

Turning to RLSSNSRIL, the Kd in test [8] (source organism: Hepatitis B virus) is ≥ 10000 nM.

On to QPHQLWTTL, for which the Kd in test [5] (setting [28]) came out at 3.43 nM.

Take MQRIISLSV: in test [2] (setting [26]), the Kd is 8.81 nM.

As for DTRTQTWMSA, the Kd in test [4] (setting [36]) is 5740 nM.

Turning to VQVLALEPGK, the Kd in test [2] (setting [25]) worked out at 2520 nM.

Take YVVIGILTLA: the Kd was 123 nM in test [1] (setting [36]) and 47.4 nM in test [18] (setting [36]).

Take MTTEDMLKV: the figures for the Kd in [1] (setting [27]) and in [12] (setting [27]) were 41.8 nM and ≥ 22800 nM, respectively.

As to MTMILFLKL, in [4] (setting [26]), the Kd worked out at 248 nM.

On to IISLWDQSL, for which the Kd in [8] (source organism: HIV-1 M:B_MN) came to 279 nM.

On to YPLAIPVTM, for which the Kd in test [15] (setting [27]) worked out at 38.7 nM; in test [5] (setting [27]), 44.6 nM; in [9] (setting [27]) it was 1.93 nM; in test [10] (setting [27]) it was 3.47 nM.

Regarding FLEQQNKIL, the Kd in [1] (source organism: Homo sapiens) was ≥ 136000 nM.

Consider LAGLFIDAGY, for which the dissociation constant Kd in [11] (setting [37]) was 54.3 nM; in [2] (setting [37]) it was 12500 nM; in test [12] (setting [37]), 1640 nM; in [13] (setting [37]), 171 nM; in test [4] (setting [37]), 14900 nM; in [14] (setting [37]), ≥ 43600 nM.

Take CTREEFTRK: the Kd in test [2] (setting [25]) was found to be 64.4 nM.

Regarding EVKKQRAGV, the Kd came out at 61.6 nM in test [1] (setting [25]) and 9120 nM in test [14] (setting [25]).

As to FTVQADMGCV, the Kd in [15] (setting [38]) was ≥ 59200 nM; in test [1] (setting [38]), 3.55 nM; in test [18] (setting [38]) it was 110 nM.

As for DPRRCLKPV, the Kd in test [5] (setting [28]) stood at 225 nM.

Turning to SGIFVTNEV, in test [1] (setting [28]), the Kd was 46.9 nM.

As to WLWYIKIFI, the Kd in test [8] (source organism: HIV-1 M:B_MN) stood at 141 nM.

Consider MPVTVASAA, for which the Kd worked out at 120 nM in test [5] (setting [28]) and 8.14 nM in [9] (setting [28]).

In the case of MTNGKINSL, the dissociation constant (Kd) in [4] (setting [26]) amounted to 22.3 nM.

Take KVLRPTPRG: the Kd in test [2] (setting [38]) amounted to 300 nM.

Turning to KLYTIVSTL, the Kd in [4] (setting [26]) stood at 7.12 nM.

Turning to MVNGVVKLL, in [1] (source organism: Dengue virus 1 Singapore/S275/1990), the Kd was 60.2 nM.

For the sequence LTNEIYASI, the Kd in test [4] (setting [26]) is 12.9 nM.

KQNMLHVII: the Kd in [4] (setting [26]) was 2.12 nM.

For the sequence ATFKIQPFL, the Kd in test [2] (setting [36]) amounted to 361 nM.

Consider AEISGSSPIL, for which the Kd in [22] is 6.75 nM; in [2] (setting [25]), 16100 nM; in test [23] it was 1.04 nM; in test [24], 6.16 nM.
